Results on two substances are retold here after publication doi:10.1101/2022.04.12.488075.

This assay addresses SARS-CoV-2 Omicron BA.2 spike extracellular domain trimer (SARS-CoV-2 (Omicron BA.2)) (UniProt P0DTC2).

pKd: −log10 of the molar value.

As for JMB2002 Fab, the pKd – broadly, the Kd on a negative log10 scale, so that one unit is a factor of ten – was 8.59.
In turn, JMB2002 IgG (antibody) gave a pKd of 9.52.
